Two molecules from patent publication US20060110388A1 (APPLIED MOLECULAR EVOLUTION, published 2006) can be followed below.

One may read the Kd as the constant that tells how readily two partners part at equilibrium. Read a high Kd as a looser complex. One may read the kon as the rate constant with which the complex forms. Lower therefore signals slow association. Broadly, the koff is a measure of how fast the partners let go of each other. High values mean fast dissociation, low ones slow dissociation.

The target of test [1] is T1, β Amyloid peptide 1-40 (human, UniProt P05067 672-711).
T1 construct: domain: β Amyloid peptide 1-40; Biotinylated peptide 1-40 (Biosource) on avidin Sepharose only captured free antibody in KinExA; also called Aβ 1-40; human Aβ (1-40)
Description: KinExA, mAb. The method, then:
(§1) Typical 1× concentrations were 10 pM of antibody active sites (0.75 ng/mL) and an upper antigen concentration of 100 pM (0.43 ng/mL). The samples were then allowed to equilibrate for 24-72 hours at room temperature. A KinExA™ instrument (Sapidyne) and standard KD run file were then used to determine the KD of the system. Briefly, the KinExA™ flow cell was charged with the β Amyloid peptide coated beads and washed with PBSA. For the first sample, free antibody in solution was captured by the beads washed with PBSA and detected using 1:250 Goat anti-human Cy5 (Jackson Immunochemicals) in PBSA. The flow cell was then flushed, re-charged with beads and the next sample analyzed. The process was repeated until all 12 samples were analyzed.
A general note: Kinetic exclusion samples the free partner from a solution-phase mixture.

Test [2] deals with T1, β Amyloid peptide 1-40. Description: KinExA, mAb. On the procedure: (§2) For KinExA™ kₒₙ and koff measurements, antigen and antibody were prepared as described above. Antigen and antibody samples at 2× active concentration were prepared in PBSA with 0.2% BSA. Samples were mixed 1:1 and the timing for the experiment started. Typical 1× concentrations were 1 nM antibody active site concentration ([…]) and 2 nM antigen (8.6 ng/mL). A KinExA™ instrument (Sapidyne) and a kineticsdirect run file were used to follow the reaction. Time for each measurement was determined using the manufacturer's instructions. Free antibody remaining in the reaction was captured using β amyloid coated beads packed into the flow cell washed with PBSA and detected at each time point using 1:250 Goat anti-human Cy5 (Jackson) in PBSA. The flow cell was then flushed and recharged with beads for the next measurement, the process continued until a complete decay curve obtained. The data was analyzed using the KinExA™ Inject software.
(§3) Association rate constants (kₒₙ) of m266 and antibodies of the present invention with Aβ were determined by KinExA™, using methods as described above in Example 1. The results of two separate kₒₙ determinations by KinExA™, in which separate preparations of antibodies were used, are provided in Tables 7 and 8.
This is another data set of the same source.

In test [3] the target is T1, β Amyloid peptide 1-40. Description: BIAcore; against m266. The method, then:
(§4) BIAcore™ is an automated biosensor system that measures molecular interactions (Karlsson, et al. (1991) J. Immunol. Methods 145: 229-240). BIAcore™ analyses described herein were carried out at 25° C. In these experiments, antibody was immobilized at low density on a BIAcore™ CM5 or B1 chip. For the m266 antibody goat anti-mouse Fc (Jackson Immunoresearch) immobilized on CM5 in flow cell 2 was used for measuring binding constants. Goat anti-mouse was used as control antibody in flow cell 1. For the humanized antibodies, protein A or protein A/G was immobilized via amine coupling to flow cells 1 and 2 of a B1 or CM5 sensor chip.
(§5) Antibody was then captured only to flow cell 2 at desired levels (usually a 10-60 second injection of antibody) and allowed to stabilize for 5 minutes. For these experiments, a fresh aliquot of Aβ 1-40 was thawed and then diluted 1:10 in HBS-EP running buffer. The 1:10 dilution was used to make up a 200 nM Aβ solution which was serially diluted (1:2 dilutions) to a lowest concentration of 6.25 nM. Each concentration was injected over the surface for 5 minutes at a flow rate of 50 μl/min (250 μl total). The Aβ and antibody were eluted from both flow cells with a 40s injection of glycine pH 1.5. The signal is allowed to stabilize for 2 minutes before the next cycle. The data from flow cell 1 is subtracted from flow cell 2 to account for any bulk shifts due to buffer differences or non-specific binding to the sensor chip or Protein A. The various concentrations were injected randomly and each concentration was run in duplicate. Two control runs of buffer only were used to control for any dissociation of antibody from the capture surface. The data was analyzed using the Biaevalution™ software. A 1:1 model with mass transfer and a local Rmax was used as the best fit for the data.
Concentrations of human Aβ (1-40) from 200 nM to 1.6 nM in 2-fold serial dilution were used to obtain on-rate constant. The upper half of Table 6 represents determinations made with a first set of antibody preparations, while the lower half represents determinations made with a second set of antibody preparations
In general terms: SPR reads the build-up and loss of mass on a sensor chip optically.

Test [4] has as its target T1, β Amyloid peptide 1-40. Description: KinExA, mAb; against m266. The method, then: as §1
The target of test [5] is T1, β Amyloid peptide 1-40. Description: KinExA, mAb; against m266. The method, then:
as §2, §3
The source holds these as a separate data set.

The target in test [6] is T1, β Amyloid peptide 1-40. Description: KinExA, mAb, equilibration 16 h. The method, then: as §1, with “The samples were then allowed to equilibrate for 24-72 hours at room temperature.” left out
as §2

Test [7] has as its target T1, β Amyloid peptide 1-40. Put plainly: BIAcore, mAb captured, Aβ 1-40 injected, first set of preparations. The method, then: as §4, §5
Concentrations of human Aβ (1-40) from 200 nM to 1.6 nM in 2-fold serial dilution were used to obtain on-rate constant. […]

Test [8] addresses T1, β Amyloid peptide 1-40. Put plainly: KinExA, mAb, single experiment. The method, then:
as §1

For test [9], the target named is T1, β Amyloid peptide 1-40. Put plainly: BIAcore; m266 is the reference.
Test [10] deals with T1, β Amyloid peptide 1-40. Put plainly: KinExA, mAb, single experiment. The method, then:
as §2, §3
The source holds these as a separate data set.

Test [11] deals with T1, β Amyloid peptide 1-40. Put plainly: KinExA, mAb, single experiment. On the procedure:
as §2, §3
The source holds these as a separate data set.

In test [12] the target is T1, β Amyloid peptide 1-40. Description: KinExA, mAb; m266 is the reference.
The target in test [13] is T1, β Amyloid peptide 1-40. Description: KinExA, mAb; m266 is the reference. The method, then: as §2, §3
This is another data set of the same source.

Test [14] concerns the target T1, β Amyloid peptide 1-40. Description: KinExA, mAb, average of the experiments. The method, then:
as §1

For test [15], the target named is T1, β Amyloid peptide 1-40. Put plainly: KinExA, mAb, average of the experiments. The method, then:
as §2, §3
This is another data set of the same source.

The target in test [16] is T1, β Amyloid peptide 1-40. Put plainly: KinExA, mAb, average of the experiments. The method, then:
as §2, §3
The source holds these as a separate data set.

In test [17] the target is T1, β Amyloid peptide 1-40. Put plainly: KinExA, mAb, single experiment, separate antigen preparation. On the procedure:
as §2
(§6) Association rate constants (kₒₙ) of m266 and antibodies of the present invention with Aβ were determined by KinExA™, using methods as described above in Example 1. […]
(§7) ^aNumbers in bold are the averages calculated from individual experiments. ^bA separate preparation of antibodies was used for these experiments. ^cA separate preparation of antigen was used for these experiments.

The target in test [18] is T1, β Amyloid peptide 1-40. Description: KinExA, mAb, single experiment, separate antibody preparation. On the procedure:
as §2, §6, §7

Test [19] has as its target T1, β Amyloid peptide 1-40. Description: KinExA, mAb, single experiment, separate antibody and antigen preparations. On the procedure:
as §2, §6, §7

The target of test [20] is T1, β Amyloid peptide 1-40. Description: BIAcore, mAb captured by anti-mouse Fc, Aβ 1-40 injected, first set of preparations. On the procedure: as §4
Antibody was then captured only to flow cell 2 at desired levels (usually a 10-60 second injection of antibody) and allowed to stabilize for 5 minutes. For these experiments, a fresh aliquot of Aβ 1-40 was thawed and then diluted 1:10 in HBS-EP running buffer. The 1:10 dilution was used to make up a 200 nM Aβ solution which was serially diluted (1:2 dilutions) to a lowest concentration of 6.25 nM. Each concentration was injected over the surface for 5 minutes at a flow rate of 50 μl/min (250 μl total). The Aβ and antibody were eluted from both flow cells with a 40s injection of glycine pH 1.5. The signal is allowed to stabilize for 2 minutes before the next cycle. […] The data was analyzed using the Biaevalution™ software. […]

Values joined by “and” are separate entries in the source; they are usually repeats but may differ in a detail not shown here. Equal entries are not always repeated.

T1 sequence (P05067 672-711 limits assumed): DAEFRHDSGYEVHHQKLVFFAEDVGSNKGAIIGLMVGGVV

B1: 1B7 monoclonal antibody (IgG1) (antibody, V domains shown)
VH: EVQLVESGGGLVKPGGSLRLSCAASGFTFSRYSMSWVRQAPGKGLEWVGQINSRGNSTYYPDTVKGRFTISRDDSKNTLYLQMNSLKTEDTAVYYCTTGDFWGQGTLVTVSS
VL: DIVMTQTPLSLSVTPGQPASISCRSSQSLIYSDGNAYLHWYLQKPGQSPQLLIYKVSNRFSGVPDRFSGSGSGTDFTLKISRVEAEDVGVYYCSQSTHSPWTFGGGTKVEIK
For the molecule B1, the Kd in test [1] turned out to be 674 pM; in test [6] it was 122 pM. For the same molecule, the values for the kon in test [2], in test [6] and in [7] were 630000 M⁻¹ s⁻¹, 1.76e+06 M⁻¹ s⁻¹ and 590000 M⁻¹ s⁻¹, respectively. Besides, the “Fold Increase (kon)” value in [3] was found to be 5 fold. Also, in test [4], the “Fold increase in affinity” value stood at 0.11 fold. In test [5], the “Fold increase in kon” value is 3 fold. This molecule had a koff in test [6] of 0.000214 s⁻¹.

B2: m266 monoclonal antibody (antibody, V domains shown)
VH: EVKLVESGGGLVQPGGSLKLSCAVSGFTFSRYSMSWVRQTPEKRLELVAQINSVGNSTYYPDTVKGRFTISRDNAEYTLSLQMSGLRSDDTATYYCASGDYWGQGTTLTVSS
VL: DVVMTQTPLSLPVSLGDQASISCRSSQSLIYSDGNAYLHWFLQKPGQSPKLLIYKVSNRFSGVPDRFSGSGSGTDFTLKISRVETEDLGVYFCSQSTHVPWTFGGGTKLEIK
modifications: CDR H2 N-glycosylated at the Asn-Ser-Thr sequence
notes: Captured by goat anti-mouse Fc in BIAcore (mouse Fc); also called mouse antibody 266
On to B2, for which the Kd in test [8] is 67.5 pM and 85.4 pM; in test [6], 76.5 pM; in [14], 76.5 pM. Also, the “Fold Increase (kon)” value in [9] was 1 fold. Further, the kon was 210000 M⁻¹ s⁻¹ and 240000 M⁻¹ s⁻¹ in test [10]; 129000 M⁻¹ s⁻¹ and 127000 M⁻¹ s⁻¹ and 88000 M⁻¹ s⁻¹ in test [11]; 88000 M⁻¹ s⁻¹ in test [6]; 230000 M⁻¹ s⁻¹ in [15]; 154000 M⁻¹ s⁻¹ in [16]; 157000 M⁻¹ s⁻¹ in test [17]. The on-rate (kon) in test [18] was determined as 186000 M⁻¹ s⁻¹; in test [19], 240000 M⁻¹ s⁻¹; in test [20], 130000 M⁻¹ s⁻¹. This molecule also showed a koff in [6] of 6.73e-06 s⁻¹. The “Fold increase in affinity” value in test [12] was 1 fold. Also, the “Fold increase in kon” value in [13] was 1 fold.
